Source: PMC8367383, “A CTP-dependent gating mechanism enables ParB spreading on DNA” (eLife, 2021)

B1: C. crescentus ParB on a cysteine-less ParB background [C. crescentus] / itself (parent)
chain: MESVVVGEPGMSEGRRGLGRGLSALLGEVDAAPACAPGEQLGGSREAPIEILQRNPDQPRRTFREEDLEDLSNSIREKGVLQPILVRPSPDTAGEYQIVAGERRWRAAQRAGLKTVPIMVRELDDLAVLEIGIIENVQRADLNVLEEALSYKVLMEKFERTQENIAQTIGKSRSHVANTMRLLALPDEVQSYLVSGELTAGHARAIAAAADPVALAKQIIEGGLSVRETEALARKAPNLSAGKSKGGRPPRVKDTDTQALESDLSSVLGLDVSIDHRGSTGTLTITYATLEQLDDLSNRLTRGI

Variants of: B1
Experiment: BMOE crosslinking assay
Details: with itself, 8 µM ParB variant, 0.5 µM 22 bp parS DNA, 5 min preincubation, read off a plot
[1] = 1 µM CTP point (lowest), parent: 33
[2] = 1000 µM CTP point (highest), parent: 80

Variant | response [1] [%] | response [2] [%]
MESVVVGEPGMSEGRRGLGRGLSALLGEVDAAPACAPGEQLGGSREAPIEILQRNPDQPARTFREEDLEDLSNSIREKGVLQPILVRPSPDTAGEYQIVAGERRWRAAQRAGLKTVPIMVRELDDLAVLEIGIIENVQRADLNVLEEALSYKVLMEKFERTQENIAQTIGKSRSHVANTMRLLALPDEVQSYLVSGELTAGHARAIAAAADPVALAKQIIEGGLSVRETEALARKAPNLSAGKSKGGRPPRVKDTDTQALESDLSSVLGLDVSIDHRGSTGTLTITYATLEQLDDLSNRLTRGI [chain 1 R60A] | 32 | 49
MESVVVGEPGMSEGRRGLGRGLSALLGEVDAAPACAPGEQLGGSREAPIEILQRNPDQPRRTFREEDLEDLSNSIREKGVLQPILVRPSPDTAGEYQIVAGEARWRAAQRAGLKTVPIMVRELDDLAVLEIGIIENVQRADLNVLEEALSYKVLMEKFERTQENIAQTIGKSRSHVANTMRLLALPDEVQSYLVSGELTAGHARAIAAAADPVALAKQIIEGGLSVRETEALARKAPNLSAGKSKGGRPPRVKDTDTQALESDLSSVLGLDVSIDHRGSTGTLTITYATLEQLDDLSNRLTRGI [chain 1 R103A] | 30 | 34
MESVVVGEPGMSEGRRGLGRGLSALLGEVDAAPACAPGEQLGGSREAPIEILQRNPDQPRRTFREEDLEDLSNSIREKGVLAPILVRPSPDTAGEYQIVAGERRWRAAQRAGLKTVPIMVRELDDLAVLEIGIIENVQRADLNVLEEALSYKVLMEKFERTQENIAQTIGKSRSHVANTMRLLALPDEVQSYLVSGELTAGHARAIAAAADPVALAKQIIEGGLSVRETEALARKAPNLSAGKSKGGRPPRVKDTDTQALESDLSSVLGLDVSIDHRGSTGTLTITYATLEQLDDLSNRLTRGI [chain 1 Q82A] | 31 | 76

Other lines, results leading:

response [1] [%] | response [2] [%] | Variant
24 | 23 | MESVVVGEPGMSEGRRGLGRGLSALLGEVDAAPACAPGEQLGGSREAPIEILQRNPDQPRRTFREEDLEDLSNSIREKGVLQPILVRPSPDTAGEYQIVAGERAWRAAQRAGLKTVPIMVRELDDLAVLEIGIIENVQRADLNVLEEALSYKVLMEKFERTQENIAQTIGKSRSHVANTMRLLALPDEVQSYLVSGELTAGHARAIAAAADPVALAKQIIEGGLSVRETEALARKAPNLSAGKSKGGRPPRVKDTDTQALESDLSSVLGLDVSIDHRGSTGTLTITYATLEQLDDLSNRLTRGI [chain 1 R104A]
28 | 39 | MESVVVGEPGMSEGRRGLGRGLSALLGEVDAAPACAPGEQLGGSREAPIEILQRNPDQPRRTFREEDLEDLSNAIREKGVLQPILVRPSPDTAGEYQIVAGERRWRAAQRAGLKTVPIMVRELDDLAVLEIGIIENVQRADLNVLEEALSYKVLMEKFERTQENIAQTIGKSRSHVANTMRLLALPDEVQSYLVSGELTAGHARAIAAAADPVALAKQIIEGGLSVRETEALARKAPNLSAGKSKGGRPPRVKDTDTQALESDLSSVLGLDVSIDHRGSTGTLTITYATLEQLDDLSNRLTRGI [chain 1 S74A]
28 | 36 | MESVVVGEPGMSEGRRGLGRGLSALLGEVDAAPACAPGEQLGGSREAPIEILQRNPDQPRRTFREEDLEDLSNSIREKGVLQPILVRPSPDTAGEYQIVAGERRWRAAQRAGLKTVPIMVRELDDLAVLEIGIIENVQAADLNVLEEALSYKVLMEKFERTQENIAQTIGKSRSHVANTMRLLALPDEVQSYLVSGELTAGHARAIAAAADPVALAKQIIEGGLSVRETEALARKAPNLSAGKSKGGRPPRVKDTDTQALESDLSSVLGLDVSIDHRGSTGTLTITYATLEQLDDLSNRLTRGI [chain 1 R139A]
